Like-named read-outs stand apart in the source and are kept apart here.
How the values were obtained:
mouse albumin [1] = target: T1, mouse albumin (mouse, UniProt P07724 25-608); assay: ELISA on coated albumin
swine albumin [2] = target: T2, swine albumin (swine, UniProt P08835 25-607); assay: ELISA on coated albumin
T2 construct: also called Porcine albumin

human albumin [3] = target: T3, human albumin (human, UniProt P02768 25-609); assay: ELISA on coated albumin
sheep albumin [4] = target: T4, sheep albumin (sheep, UniProt P14639 25-607); assay: ELISA on coated albumin
bovine albumin [5] = target: T5, bovine albumin (bovine, UniProt P02769 25-607); assay: ELISA on coated albumin
chicken ovalbumin [6] = target: T6, chicken ovalbumin (chicken, UniProt P01012 2-386); assay: ELISA on coated albumin
T6 construct: also called Chicken Alb
T6 sequence (looked up): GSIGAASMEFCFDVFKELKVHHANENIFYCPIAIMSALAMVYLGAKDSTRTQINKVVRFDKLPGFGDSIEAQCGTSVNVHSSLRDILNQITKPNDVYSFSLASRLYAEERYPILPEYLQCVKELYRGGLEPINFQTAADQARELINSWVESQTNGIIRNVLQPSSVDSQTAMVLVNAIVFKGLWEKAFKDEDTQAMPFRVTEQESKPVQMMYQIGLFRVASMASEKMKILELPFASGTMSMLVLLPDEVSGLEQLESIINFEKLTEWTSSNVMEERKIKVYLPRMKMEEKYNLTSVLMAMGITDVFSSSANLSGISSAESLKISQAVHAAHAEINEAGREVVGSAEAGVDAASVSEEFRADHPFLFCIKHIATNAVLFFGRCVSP

horse albumin [7] = target: T7, horse albumin (horse, UniProt P35747 25-607); assay: ELISA on coated albumin
T7 construct: also called Equine albumin

dog albumin [8] = target: T8, dog albumin (dog, UniProt P49822 25-608); assay: ELISA on coated albumin
T8 construct: also called Canine albumin

cat albumin [9] = target: T9, cat albumin (cat, UniProt P49064 25-608); assay: ELISA on cat albumin captured from serum
T9 construct: also called Feline albumin

mouse albumin [10] = target: T1, mouse albumin; assay: ELISA; A450 below 0.2 at highest SDA concentration
swine albumin [11] = target: T2, swine albumin; assay: ELISA; A450 below 0.2 at highest SDA concentration
cat albumin [12] = target: T9, cat albumin; assay: ELISA; A450 below 0.2 at highest SDA concentration
human albumin [13] = target: T3, human albumin; assay: ELISA; A450 below 0.2 at highest SDA concentration
sheep albumin [14] = target: T4, sheep albumin; assay: ELISA; A450 below 0.2 at highest SDA concentration
bovine albumin [15] = target: T5, bovine albumin; assay: ELISA; A450 below 0.2 at highest SDA concentration
chicken ovalbumin [16] = target: T6, chicken ovalbumin; assay: ELISA; A450 below 0.2 at highest SDA concentration
horse albumin [17] = target: T7, horse albumin; assay: ELISA; A450 below 0.2 at highest SDA concentration
dog albumin [18] = target: T8, dog albumin; assay: ELISA; A450 below 0.2 at highest SDA concentration
[19] = target: T10, tetanus neurotoxin (TeNT), authentic tetanus holotoxin (Clostridium tetani, UniProt P04958 2-1315)
[20] = target: T10, tetanus neurotoxin (TeNT), authentic …; assay: cell-based or functional assay
Target sequence in this assay (P04958 2-457 limits assumed): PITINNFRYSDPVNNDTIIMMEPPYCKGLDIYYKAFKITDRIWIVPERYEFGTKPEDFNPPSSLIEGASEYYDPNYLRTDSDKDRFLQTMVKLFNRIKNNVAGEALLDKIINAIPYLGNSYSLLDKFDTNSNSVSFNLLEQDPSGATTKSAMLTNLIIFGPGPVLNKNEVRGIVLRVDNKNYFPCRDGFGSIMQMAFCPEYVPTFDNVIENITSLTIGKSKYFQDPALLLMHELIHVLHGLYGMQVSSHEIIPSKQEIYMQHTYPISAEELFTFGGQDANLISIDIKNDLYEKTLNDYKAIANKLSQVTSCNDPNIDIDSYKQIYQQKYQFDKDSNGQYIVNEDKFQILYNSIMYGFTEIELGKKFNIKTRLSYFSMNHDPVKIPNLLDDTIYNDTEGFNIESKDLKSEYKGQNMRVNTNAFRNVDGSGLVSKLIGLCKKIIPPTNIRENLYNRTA

[21] = target: T10, tetanus neurotoxin (TeNT), authentic …; assay: BLI (Octet Red96): biotinylated TeNT on SA sensor, SDA as analyte
[22] = target: T10, tetanus neurotoxin (TeNT), authentic …; assay: BLI (Octet Red96); estimate of the footnote with kdis set to 1.0E-07
Target sequence in this assay (P04958 2-457 limits assumed): as above

[23] = target: T10, tetanus neurotoxin (TeNT), authentic …; assay: GT1b-TeNT inhibition ELISA
[24] = target: T10, tetanus neurotoxin (TeNT), authentic …; assay: GT1b-TeNT inhibition ELISA; remark: listed apart in the source
[25] = target: horse albumin (horse Alb) (horse, UniProt P35747 25-607); assay: BLI ([…] (0.11 nm), […] (0.01 nm)
[26] = target: T10, tetanus neurotoxin (TeNT), authentic …; assay: ELISA: directly coated TeNT, anti-his6 PO
[27] = target: T10, tetanus neurotoxin (TeNT), authentic …; assay: ELISA: directly coated TeNT, anti-his6 PO; remark: listed apart in the source
[28] = target: T10, tetanus neurotoxin (TeNT), authentic …; assay: ELISA: directly coated TeNT, goat anti-llama Ig PO
[29] = target: T10, tetanus neurotoxin (TeNT), authentic …; assay: ELISA: directly coated TeNT, goat anti-llama Ig PO; remark: listed apart in the source
[30] = target: T10, tetanus neurotoxin (TeNT), authentic …; assay: BLI (Octet Red96): biotinylated SDA on SA sensor, TeNT as analyte
[31] = target: T10, tetanus neurotoxin (TeNT), authentic …; assay: bridging ELISA: coated TeNT, SDA, biotinylated TeNT, StrepPO (bivalent binding)
[32] = target: T10, tetanus neurotoxin (TeNT), authentic …; assay: as above; remark: listed apart in the source
dog serum albumin = target: T11, dog serum albumin (dog, UniProt P49822 25-608); assay: BLI, biotinylated SDA on SA sensors
T11 construct: mature; also called dog Alb; Canine albumin

horse serum albumin = target: T12, horse serum albumin (horse, UniProt P35747 25-607); assay: BLI, biotinylated albumin on SA sensors
T12 construct: mature; also called horse Alb; Equine albumin

human serum albumin = target: T13, human serum albumin (human, UniProt P02768 25-609); assay: BLI, biotinylated albumin on SA sensors
T13 construct: mature; also called human Alb

[33] = target: T10, tetanus neurotoxin (TeNT), authentic …; assay: BLI (Octet Red96); avidity (bivalent for TeNT); format for this SDA not told
[34] = target: T10, tetanus neurotoxin (TeNT), authentic …; assay: BLI (Octet Red96); estimate of the footnote with kdis set to 1.0E-07; avidity

T1 sequence (P07724 25-608 limits assumed): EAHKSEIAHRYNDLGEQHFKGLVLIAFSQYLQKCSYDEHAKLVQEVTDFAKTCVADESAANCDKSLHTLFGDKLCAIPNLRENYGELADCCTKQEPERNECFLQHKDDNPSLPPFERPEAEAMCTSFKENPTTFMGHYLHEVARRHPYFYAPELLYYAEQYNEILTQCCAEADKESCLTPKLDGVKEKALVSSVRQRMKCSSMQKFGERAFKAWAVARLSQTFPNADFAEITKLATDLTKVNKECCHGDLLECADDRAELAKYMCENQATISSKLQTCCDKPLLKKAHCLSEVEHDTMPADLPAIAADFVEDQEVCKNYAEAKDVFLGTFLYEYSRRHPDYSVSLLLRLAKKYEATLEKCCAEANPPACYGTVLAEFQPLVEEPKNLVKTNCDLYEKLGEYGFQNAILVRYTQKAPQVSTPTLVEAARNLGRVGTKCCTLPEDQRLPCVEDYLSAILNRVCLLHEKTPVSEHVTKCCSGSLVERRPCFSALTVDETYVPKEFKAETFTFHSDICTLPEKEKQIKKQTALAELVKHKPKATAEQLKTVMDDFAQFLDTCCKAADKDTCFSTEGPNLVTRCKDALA
T8 sequence (P49822 25-608 limits assumed): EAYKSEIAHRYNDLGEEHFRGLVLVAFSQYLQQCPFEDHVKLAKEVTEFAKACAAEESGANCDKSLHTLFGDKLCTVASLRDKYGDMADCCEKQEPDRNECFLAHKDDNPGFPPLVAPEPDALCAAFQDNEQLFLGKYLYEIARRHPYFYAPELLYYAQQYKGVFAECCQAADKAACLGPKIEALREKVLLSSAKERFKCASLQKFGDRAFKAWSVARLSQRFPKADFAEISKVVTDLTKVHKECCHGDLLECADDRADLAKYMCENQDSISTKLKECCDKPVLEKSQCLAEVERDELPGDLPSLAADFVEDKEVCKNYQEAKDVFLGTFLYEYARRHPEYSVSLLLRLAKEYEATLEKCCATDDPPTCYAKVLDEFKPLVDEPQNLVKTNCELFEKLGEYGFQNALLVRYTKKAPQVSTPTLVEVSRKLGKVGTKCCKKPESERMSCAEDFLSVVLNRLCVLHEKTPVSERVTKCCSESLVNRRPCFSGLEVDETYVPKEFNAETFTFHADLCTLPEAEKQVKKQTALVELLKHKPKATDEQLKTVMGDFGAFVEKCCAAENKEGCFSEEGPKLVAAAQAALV
T7 sequence (P35747 25-607 limits assumed): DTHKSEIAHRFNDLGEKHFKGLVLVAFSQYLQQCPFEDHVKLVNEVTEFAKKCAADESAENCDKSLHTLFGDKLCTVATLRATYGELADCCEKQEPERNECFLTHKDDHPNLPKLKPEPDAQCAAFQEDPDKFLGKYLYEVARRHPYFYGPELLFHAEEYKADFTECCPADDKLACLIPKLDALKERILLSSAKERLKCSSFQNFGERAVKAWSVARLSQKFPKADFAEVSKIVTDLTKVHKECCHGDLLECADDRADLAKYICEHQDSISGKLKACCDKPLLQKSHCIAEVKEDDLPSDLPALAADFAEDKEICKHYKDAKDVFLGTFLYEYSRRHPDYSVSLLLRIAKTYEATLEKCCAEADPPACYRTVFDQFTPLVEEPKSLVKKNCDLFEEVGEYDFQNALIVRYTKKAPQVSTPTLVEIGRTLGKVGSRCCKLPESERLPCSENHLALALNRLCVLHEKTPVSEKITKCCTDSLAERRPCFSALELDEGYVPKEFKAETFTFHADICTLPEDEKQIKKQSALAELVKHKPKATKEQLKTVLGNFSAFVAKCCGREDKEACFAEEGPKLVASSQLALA
T2 sequence (P08835 25-607 limits assumed): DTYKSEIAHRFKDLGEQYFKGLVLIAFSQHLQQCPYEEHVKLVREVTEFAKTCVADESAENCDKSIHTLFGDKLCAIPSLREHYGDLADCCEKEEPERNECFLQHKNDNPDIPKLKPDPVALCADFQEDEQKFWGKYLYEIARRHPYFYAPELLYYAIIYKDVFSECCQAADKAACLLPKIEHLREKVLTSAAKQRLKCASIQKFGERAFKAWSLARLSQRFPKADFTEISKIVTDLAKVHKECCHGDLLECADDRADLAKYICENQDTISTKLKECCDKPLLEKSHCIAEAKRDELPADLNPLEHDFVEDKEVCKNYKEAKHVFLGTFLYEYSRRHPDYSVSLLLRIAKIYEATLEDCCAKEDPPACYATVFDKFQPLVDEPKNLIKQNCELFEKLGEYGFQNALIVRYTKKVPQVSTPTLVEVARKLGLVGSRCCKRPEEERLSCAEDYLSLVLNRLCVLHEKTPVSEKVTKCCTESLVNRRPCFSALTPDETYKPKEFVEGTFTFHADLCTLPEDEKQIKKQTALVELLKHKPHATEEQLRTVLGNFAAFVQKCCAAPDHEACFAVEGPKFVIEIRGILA
T5 sequence (P02769 25-607 limits assumed): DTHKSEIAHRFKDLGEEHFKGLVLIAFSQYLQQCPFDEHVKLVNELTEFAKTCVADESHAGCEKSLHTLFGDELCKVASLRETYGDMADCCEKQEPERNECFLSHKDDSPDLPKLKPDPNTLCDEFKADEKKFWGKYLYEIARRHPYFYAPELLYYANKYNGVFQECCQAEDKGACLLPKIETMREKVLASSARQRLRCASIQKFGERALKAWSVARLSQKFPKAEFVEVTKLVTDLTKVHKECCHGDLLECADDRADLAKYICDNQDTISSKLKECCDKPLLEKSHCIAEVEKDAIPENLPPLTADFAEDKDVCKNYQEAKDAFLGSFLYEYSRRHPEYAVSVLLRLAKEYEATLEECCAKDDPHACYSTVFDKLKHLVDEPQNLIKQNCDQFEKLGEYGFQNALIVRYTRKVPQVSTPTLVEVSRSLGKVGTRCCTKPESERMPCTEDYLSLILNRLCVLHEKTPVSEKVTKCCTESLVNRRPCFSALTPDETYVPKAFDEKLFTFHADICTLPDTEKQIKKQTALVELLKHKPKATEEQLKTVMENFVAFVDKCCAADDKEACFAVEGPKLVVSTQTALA
T4 sequence (P14639 25-607 limits assumed): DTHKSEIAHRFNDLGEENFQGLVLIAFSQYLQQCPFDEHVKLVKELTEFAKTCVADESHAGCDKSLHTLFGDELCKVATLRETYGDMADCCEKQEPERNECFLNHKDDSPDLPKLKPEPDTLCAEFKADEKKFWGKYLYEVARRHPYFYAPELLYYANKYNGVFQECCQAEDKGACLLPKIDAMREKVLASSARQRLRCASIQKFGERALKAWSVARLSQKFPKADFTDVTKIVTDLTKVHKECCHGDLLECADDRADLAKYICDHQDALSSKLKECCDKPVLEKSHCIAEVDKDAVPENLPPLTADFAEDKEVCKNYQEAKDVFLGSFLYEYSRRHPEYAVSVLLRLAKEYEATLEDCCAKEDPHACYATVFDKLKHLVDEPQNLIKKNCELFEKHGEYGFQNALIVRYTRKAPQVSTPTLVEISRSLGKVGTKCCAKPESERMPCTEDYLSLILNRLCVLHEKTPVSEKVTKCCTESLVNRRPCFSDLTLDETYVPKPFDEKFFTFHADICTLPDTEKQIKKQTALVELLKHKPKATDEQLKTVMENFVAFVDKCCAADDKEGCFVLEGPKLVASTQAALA
T9 sequence (P49064 25-608 limits assumed): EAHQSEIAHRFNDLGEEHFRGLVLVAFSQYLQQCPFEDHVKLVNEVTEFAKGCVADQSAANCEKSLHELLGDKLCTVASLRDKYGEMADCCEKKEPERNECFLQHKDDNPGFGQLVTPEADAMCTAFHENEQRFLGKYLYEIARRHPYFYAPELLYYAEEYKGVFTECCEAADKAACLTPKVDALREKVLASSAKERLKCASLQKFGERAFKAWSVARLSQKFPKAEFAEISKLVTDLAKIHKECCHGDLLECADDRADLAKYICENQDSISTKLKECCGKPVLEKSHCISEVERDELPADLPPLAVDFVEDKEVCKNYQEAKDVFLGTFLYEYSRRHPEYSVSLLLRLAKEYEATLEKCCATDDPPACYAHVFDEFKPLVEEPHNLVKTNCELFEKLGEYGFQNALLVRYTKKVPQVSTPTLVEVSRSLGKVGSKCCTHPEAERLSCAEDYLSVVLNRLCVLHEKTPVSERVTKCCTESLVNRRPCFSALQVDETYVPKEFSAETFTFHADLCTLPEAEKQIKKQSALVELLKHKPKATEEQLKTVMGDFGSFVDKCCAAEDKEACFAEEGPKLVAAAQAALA
T11 sequence (P49822 25-608): as the sequence (P49822 25-608 limits assumed) above
T12 sequence (P35747 25-607): as the sequence (P35747 25-607 limits assumed) above
horse albumin (horse Alb), sequence (P35747 25-607 limits assumed): as above

B1: SVT06L (VHH)
VHH: QVQLQESGGGSVQAGGSLRLSCTASELSYDDYTIAWFRRAAGEGRVEDGEGVASITKSYDRAYDNKINYGHSVKGRFTISRDNAKNTVYLQMTDLLPSDTAVYYCALDITPPGGVGASLTEGFLFDYWGQGTQVTVSS
- SDA Effective Concentration resulting in A450 nm = 0.2 (mouse albumin [1]): > 1000 ng/mL
- maximal absorbance value at 450 nm (mouse albumin [1]): 0.073 A450
- SDA Effective Concentration resulting in A450 nm = 0.2 (swine albumin [2]): > 1000 ng/mL
- maximal absorbance value at 450 nm (swine albumin [2]): 0.08 A450
- SDA Effective Concentration resulting in A450 nm = 0.2 (human albumin [3]): > 1000 ng/mL
- maximal absorbance value at 450 nm (human albumin [3]): 0.065 A450
- SDA Effective Concentration resulting in A450 nm = 0.2 (sheep albumin [4]): > 1000 ng/mL
- maximal absorbance value at 450 nm (sheep albumin [4]): 0.06 A450
- SDA Effective Concentration resulting in A450 nm = 0.2 (bovine albumin [5]): > 1000 ng/mL
- maximal absorbance value at 450 nm (bovine albumin [5]): 0.051 A450
- SDA Effective Concentration resulting in A450 nm = 0.2 (chicken ovalbumin [6]): > 1000 ng/mL
- maximal absorbance value at 450 nm (chicken ovalbumin [6]): 0.057 A450
- SDA Effective Concentration resulting in A450 nm = 0.2 (horse albumin [7]): > 1000 ng/mL
- maximal absorbance value at 450 nm (horse albumin [7]): 0.056 A450
- SDA Effective Concentration resulting in A450 nm = 0.2 (dog albumin [8]): > 1000 ng/mL
- maximal absorbance value at 450 nm (dog albumin [8]): 0.053 A450
- maximal absorbance value at 450 nm (cat albumin [9]): 0.099 A450
- binding result (mouse albumin [10]): no binding (tested: 1000 ng/ml)
- binding result (swine albumin [11]): no binding (tested: 1000 ng/ml)
- binding result (cat albumin [12]): no binding (tested: 1000 ng/ml)
- binding result (human albumin [13]): no binding (tested: 1000 ng/ml)
- binding result (sheep albumin [14]): no binding (tested: 1000 ng/ml)
- binding result (bovine albumin [15]): no binding (tested: 1000 ng/ml)
- binding result (chicken ovalbumin [16]): no binding (tested: 1000 ng/ml)
- binding result (horse albumin [17]): no binding (tested: 1000 ng/ml)
- binding result (dog albumin [18]): no binding (tested: 1000 ng/ml)

B2: SVT03L (VHH)
VHH: QVQLQQSGGGSVQTGDSLTLSCTASGGSLNSYFVGWFRQSGGKEREFVSVIARTGRSTSYADSVKGRFTISRDNAANTVFLTMNNLRPDDTAIYYCAAVGRPGVLHLTQSYDYWGQGTQVTVSS
- Kd [19]: < 1 pM
- Endpoint dilution factor [20]: < 1
- SDA concentration providing full protection [20]: > 1000 nM
- koff [21]: < 1e-07 s⁻¹
- kon [21]: 5.65e+06 M⁻¹ s⁻¹
- Kd [22]: ~0.0177 pM

B3: SVT16L (VHH)
VHH: QVQLQESGGGSVQAGDSLRLSCAASGRTISNYAMGWFRQAPGKQREFVAAISRSDNTYYTDSVKGRFTISRDNAKNTLYLQMNSLKPEETAVYYCAADPNLMYESKWKYRALEAWGQGTLVTVSS
- minimal absorbance value (GT1b-TeNT inhibition) [23]: 0.18 A450
- Effective SDA Concentration at A450 0.56 [24]: 21 ng/mL
- binding result [25]: no binding (tested: 100 nM)
- maximal absorbance value [26]: 1.56 A450
- Effective SDA Concentration at A450 0.15 [27]: 1.4 ng/mL
- maximal absorbance value [28]: 0.44 A450
- Effective SDA Concentration at A450 0.15 [29]: 5 ng/mL
- Kd [30]: 339 pM
- koff [30]: 0.000311 s⁻¹
- kon [30]: 916000 M⁻¹ s⁻¹
- maximal absorbance value [31]: 0.18 A450
- Effective SDA Concentration at A450 0.3 [32]: > 1000 ng/mL

B4: SVT15-3FW4M-GS3-SVT06-GS2-SVG13M5-H6 (bispecific antibody)
chain: QVQLQESGGGLVQTGGSLRLSCRASGRAFANYHFGWFRQAPGKDREFVASISWKGGSTYYANFALGRFTSSVDRAESSVYLQMSGLTPEDTATYYCAAHDGGDWNYHTGMDYWGQGTQVTVSSGGGGSGGGGSGGGGSQVQLQESGGGSVQAGGSLRLSCTASELSYDDYTIAWFRRAAGEGRVEDGEGVASITKSYDRAYDNKINYGHSVKGRFTISRDNAKNTVYLQMTDLLPSDTAVYYCALDITPPGGVGASLTEGFLFDYWGQGTQVTVSSGGGGSGGGSEVQLVESGGGLVQPGGSLRLSCEASGFTFDDYGMSWVRQAPGKGLEWVSSLTPNGGSTYYADSVKGRFTISRDNAKNTLYLQMNSLKPEDTALYYCAKNSYYGAMDYRGQGTQVTVSSHHHHHH
- binding result (dog serum albumin): no binding (tested: 500 nM)
- binding result (horse serum albumin): no binding (tested: 100 nM)
- binding result (human serum albumin): no binding (tested: 100 nM)

B5: SVT06-GS3-SVT15-3FW4M-GS2-SVG06M4-H6 (bispecific antibody)
chain: QVQLQESGGGSVQAGGSLRLSCTASELSYDDYTIAWFRRAAGEGRVEDGEGVASITKSYDRAYDNKINYGHSVKGRFTISRDNAKNTVYLQMTDLLPSDTAVYYCALDITPPGGVGASLTEGFLFDYWGQGTQVTVSSGGGGSGGGGSGGGGSQVQLQESGGGLVQTGGSLRLSCRASGRAFANYHFGWFRQAPGKDREFVASISWKGGSTYYANFALGRFTSSVDRAESSVYLQMSGLTPEDTATYYCAAHDGGDWNYHTGMDYWGQGTQVTVSSGGGGSGGGSEVQLVESGGALVQPGGSLRLSCAASGFPFSAYDMTWVRQAPGQGLEWVSTIHKSGGITTYADSVKGRFTISRDNAKNTLYLQMNNLESEDTAVYYCAKALRAHNSDYVGRNALGSWGQGTQVTVSSHHHHHH
- Kd [19]: < 1 pM
- koff [33]: < 1e-07 s⁻¹
- kon [33]: 69100 M⁻¹ s⁻¹
- Kd [34]: ~1.45 pM

Reference: patent US20240376185A1 (SMIVET B V, published 2024)
